Measured values from PMC3725505 (Scientific Reports, 2013).
Ends that are not written are not given here.

Biological target: Kelch domain of human Keap1 (residues 321-609) (human, UniProt Q14145 321-609)
Experiment: ITC

Chain of Kelch domain of human Keap1 (residues 321-609) (Q14145 321-609): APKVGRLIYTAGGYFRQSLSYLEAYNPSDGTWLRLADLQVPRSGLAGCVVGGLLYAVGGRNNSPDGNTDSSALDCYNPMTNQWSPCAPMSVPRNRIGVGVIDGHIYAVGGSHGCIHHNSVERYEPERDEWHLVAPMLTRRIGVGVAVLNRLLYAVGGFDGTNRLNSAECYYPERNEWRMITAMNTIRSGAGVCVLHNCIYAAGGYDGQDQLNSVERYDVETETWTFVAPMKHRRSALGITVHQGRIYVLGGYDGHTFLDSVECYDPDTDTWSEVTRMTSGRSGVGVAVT

dH: -10.8 ± 0.14 kcal/mol
B1: WTX pS286 peptide (20-mer, S286 phosphorylated) (peptide)
chain: SLEEPHSPETGEKVVAGEVN
modifications: also: phosphoserine (S286), position in chain not placed
